B1: Proto-oncogene vav, residues 782 to 842; numbered along this chain, P15498 (parent)
chain: KYFGTAKARYDFCARDRSELSLKEGDIIKILNKKGQQGWWRGEIYGRVGWFPANYVEEDYS
B2: Retinoic acid receptor RXR-alpha, residues 132 to 208; numbered along this chain, P19793 (parent)
chain: KHICAICGDRSSGKHYGVYSCEGCKGFFKRTVRKDLTYTCRDNKDCLIDKRQRNRCQYCRYQKCLAMGMKREAVQEE

± gives the uncertainty stated by the source.

The variants in one series derive from B1. Nature of the series: abundance fitness (aPCA) (normalised: wild type 0, dead -1); higher = more abundant; growth selection in yeast, the domain comes from the species named. To be noted: Homo sapiens.
Consider KYFGTAKARYDFCARDRSELSLKEGDIIKILNKKGQKGWWRGEIYGRVGWFPANYVEEDYS, for which the abundance fitness is -0.022 ± 0.22.
The same measure, in the same setting: next, KYFGTAKARYDFCARDRSELSLKEGDIIKILNKKGQQGWWRGEIYGRVGWFPTNYVEEDYS: -0.227 ± 0.08; KYFGTAKARYDFCARDRSELVLKEGDIIKILNKKGQQGWWRGEIYGRVGWFPANYVEEDYS: -0.895 ± 0.16; KYFGTAKARYDGCARDRSELSLKEGDIIKILNKKGQQGWWRGEIYGRVGWFPANYVEEDYS: -0.977 ± 0.16.
Still for that read-out and setting: the value for KYFGTAKARYDFCARDRSELSLKEGDIIKILNKKGQQGWWRGEIYGRVGWFYANYVEEDYS was -1.01 ± 0.34; that for KYFGTAKARYDFCARDRSDLSLKEGDIIKILNKKGQQGWWRGEIYGRVGWFPANYVEEDYS was -0.654 ± 0.25.

The next series covers variants of B2. The description is as above. The conditions noted are these: Homo sapiens.
As for KHIEAICGDRSSGKHYGVYSCEGCKGFFKRTVRKDLTYTCRDNKDCLIDKRQRNRCQYCRYQKCLAMGMKREAVQEE, the abundance fitness is -0.866 ± 0.11.
The same measure, in the same setting: next, KHIQAICGDRSSGKHYGVYSCEGCKGFFKRTVRKDLTYTCRDNKDCLIDKRQRNRCQYCRYQKCLAMGMKREAVQEE: -0.614 ± 0.088.
As to KHIFAICGDRSSGKHYGVYSCEGCKGFFKRTVRKDLTYTCRDNKDCLIDKRQRNRCQYCRYQKCLAMGMKREAVQEE, the abundance fitness is -0.955 ± 0.11.
Same read-out and setting: the value for KHIWAICGDRSSGKHYGVYSCEGCKGFFKRTVRKDLTYTCRDNKDCLIDKRQRNRCQYCRYQKCLAMGMKREAVQEE was -1.3 ± 0.19; that for KHIKAICGDRSSGKHYGVYSCEGCKGFFKRTVRKDLTYTCRDNKDCLIDKRQRNRCQYCRYQKCLAMGMKREAVQEE was -1.23 ± 0.2; that for KHIMAICGDRSSGKHYGVYSCEGCKGFFKRTVRKDLTYTCRDNKDCLIDKRQRNRCQYCRYQKCLAMGMKREAVQEE was -1.08 ± 0.16.
On the same count and under the same terms, next, KHILAICGDRSSGKHYGVYSCEGCKGFFKRTVRKDLTYTCRDNKDCLIDKRQRNRCQYCRYQKCLAMGMKREAVQEE: -0.999 ± 0.076; KHIAAICGDRSSGKHYGVYSCEGCKGFFKRTVRKDLTYTCRDNKDCLIDKRQRNRCQYCRYQKCLAMGMKREAVQEE: -0.895 ± 0.063.
The same measure, in the same setting: next, KHIHAICGDRSSGKHYGVYSCEGCKGFFKRTVRKDLTYTCRDNKDCLIDKRQRNRCQYCRYQKCLAMGMKREAVQEE: -0.512 ± 0.073.
For the variant KHITAICGDRSSGKHYGVYSCEGCKGFFKRTVRKDLTYTCRDNKDCLIDKRQRNRCQYCRYQKCLAMGMKREAVQEE, the abundance fitness is -0.757 ± 0.063.
Still for that read-out and setting: next, KHIGAICGDRSSGKHYGVYSCEGCKGFFKRTVRKDLTYTCRDNKDCLIDKRQRNRCQYCRYQKCLAMGMKREAVQEE: -0.914 ± 0.059; KHIPAICGDRSSGKHYGVYSCEGCKGFFKRTVRKDLTYTCRDNKDCLIDKRQRNRCQYCRYQKCLAMGMKREAVQEE: -0.99 ± 0.1; KHIRAICGDRSSGKHYGVYSCEGCKGFFKRTVRKDLTYTCRDNKDCLIDKRQRNRCQYCRYQKCLAMGMKREAVQEE: -1.02 ± 0.066.
On the same count and under the same terms, the value for KHISAICGDRSSGKHYGVYSCEGCKGFFKRTVRKDLTYTCRDNKDCLIDKRQRNRCQYCRYQKCLAMGMKREAVQEE was -1.03 ± 0.076; that for KHINAICGDRSSGKHYGVYSCEGCKGFFKRTVRKDLTYTCRDNKDCLIDKRQRNRCQYCRYQKCLAMGMKREAVQEE was -0.936 ± 0.12.
With KHIDAICGDRSSGKHYGVYSCEGCKGFFKRTVRKDLTYTCRDNKDCLIDKRQRNRCQYCRYQKCLAMGMKREAVQEE, the abundance fitness was -0.807 ± 0.11.
On the same count and under the same terms, the value for KHIVAICGDRSSGKHYGVYSCEGCKGFFKRTVRKDLTYTCRDNKDCLIDKRQRNRCQYCRYQKCLAMGMKREAVQEE was -1.03 ± 0.086; that for KHECAICGDRSSGKHYGVYSCEGCKGFFKRTVRKDLTYTCRDNKDCLIDKRQRNRCQYCRYQKCLAMGMKREAVQEE was -0.428 ± 0.066.
Turning to KHQCAICGDRSSGKHYGVYSCEGCKGFFKRTVRKDLTYTCRDNKDCLIDKRQRNRCQYCRYQKCLAMGMKREAVQEE, the abundance fitness is -0.211 ± 0.045.
The same measure, in the same setting: next, KHTCAICGDRSSGKHYGVYSCEGCKGFFKRTVRKDLTYTCRDNKDCLIDKRQRNRCQYCRYQKCLAMGMKREAVQEE: -0.008 ± 0.031; KHRCAICGDRSSGKHYGVYSCEGCKGFFKRTVRKDLTYTCRDNKDCLIDKRQRNRCQYCRYQKCLAMGMKREAVQEE: -0.218 ± 0.031.
Same read-out and setting: the value for KHLCAICGDRSSGKHYGVYSCEGCKGFFKRTVRKDLTYTCRDNKDCLIDKRQRNRCQYCRYQKCLAMGMKREAVQEE was 0.009 ± 0.029; that for KHYCAICGDRSSGKHYGVYSCEGCKGFFKRTVRKDLTYTCRDNKDCLIDKRQRNRCQYCRYQKCLAMGMKREAVQEE was -0.058 ± 0.038; that for KHWCAICGDRSSGKHYGVYSCEGCKGFFKRTVRKDLTYTCRDNKDCLIDKRQRNRCQYCRYQKCLAMGMKREAVQEE was -0.404 ± 0.071.
Still for that read-out and setting: the value for KHHCAICGDRSSGKHYGVYSCEGCKGFFKRTVRKDLTYTCRDNKDCLIDKRQRNRCQYCRYQKCLAMGMKREAVQEE was 0.017 ± 0.031.
KHCCAICGDRSSGKHYGVYSCEGCKGFFKRTVRKDLTYTCRDNKDCLIDKRQRNRCQYCRYQKCLAMGMKREAVQEE: the abundance fitness came out at 0.022 ± 0.037.
As for KHGCAICGDRSSGKHYGVYSCEGCKGFFKRTVRKDLTYTCRDNKDCLIDKRQRNRCQYCRYQKCLAMGMKREAVQEE, the abundance fitness was -0.28 ± 0.043.
The same measure, in the same setting: next, KHVCAICGDRSSGKHYGVYSCEGCKGFFKRTVRKDLTYTCRDNKDCLIDKRQRNRCQYCRYQKCLAMGMKREAVQEE: -0.3 ± 0.039; KHDCAICGDRSSGKHYGVYSCEGCKGFFKRTVRKDLTYTCRDNKDCLIDKRQRNRCQYCRYQKCLAMGMKREAVQEE: -0.059 ± 0.035.
In the case of KHSCAICGDRSSGKHYGVYSCEGCKGFFKRTVRKDLTYTCRDNKDCLIDKRQRNRCQYCRYQKCLAMGMKREAVQEE, the abundance fitness was -0.127 ± 0.029.

(Values after the Human Domainome abundance scans (Beltran et al. 2025).)
